Measurements from patent US20260242478A1 (published 2026).
Where no end group is shown, it is not given here.

B1: Phage-3795 (peptide)
peptide: DLIYCRPAWMCDGF
notes: Clone of the Peptide-180 optimisation library, tested as clonal phage supernatant
B2: Phage-3790 (peptide)
peptide: VSQLCIPEWMCIGI
notes: as for B1
B3: Phage-3798 (peptide)
peptide: MSMYCVPTWMCNGF
notes: as for B1
B4: Phage-3799 (peptide)
peptide: LELACRPMWMCQGF
notes: as for B1
B5: Phage-3794 (peptide)
peptide: TVKQCVPEWMCVML
notes: as for B1
B6: Phage-3788 (peptide)
peptide: MLRSCVPPWMCAGF
modifications: cysteine pairing not given here; also: displayed on phage as fusion to pIII, junction not given here
notes: as for B1
B7: Phage-3796 (peptide)
peptide: MERSCIPDWMCLGF
notes: as for B1
B8: Phage-3789 (peptide)
peptide: EQVLCRPEWMCIGF
notes: as for B1
B9: Phage-3769 (peptide, not shown: large carriers)
peptide: GSPFCVPLWMCEGF
notes: Clonal phage of the peptide-180 library, tested as crude phage supernatant
B10: Phage-3791 (peptide)
peptide: VHMACTPWWMCVGF
notes: as for B1
B11: Phage-3781 (peptide)
peptide: LVARCVPEWMCAGF
modifications: cysteine pairing not given here; also: displayed on phage as fusion to pIII, junction not given here
B12: Phage-3797 (peptide)
peptide: VEYLCKPVWMCQGF
notes: as for B1
B13: Phage-3792 (peptide)
peptide: HMQYCIPQWMCHGF
notes: as for B1
B14: Phage-3793 (peptide)
peptide: FAFDCVPKWMCTGF
notes: as for B1
B15: Phage-3767 (peptide, not shown: large carriers)
peptide: VVRVCEPSWMCAGF
modifications: cysteine pairing not given here; also: displayed on phage as pIII fusion
notes: as for B9
B16: Phage-3768 (peptide, not shown: large carriers)
peptide: SEPVCTPMWMCTGI
notes: as for B9
B17: Phage-3786 (peptide)
peptide: EMIRCEPRWMCSGF
modifications: cysteine pairing not given here; also: displayed on phage as fusion to pIII, junction not given here
notes: as for B1
B18: Phage-3771 (peptide, not shown: large carriers)
peptide: GNIWCEPAWMCVGF
notes: as for B9
B19: Phage-3770 (peptide, not shown: large carriers)
peptide: TTPMCVPAWMCSGM
notes: as for B9
B20: Phage-3780 (peptide)
peptide: HMPLCIPVWMCAGF
modifications: not fully specified (residue 3); cysteine pairing not given here; also: displayed on phage as fusion to pIII, junction not given here
B21: Phage-3787 (peptide)
peptide: LKVECRPLWMCEGF
notes: as for B1

Assays:
PSMA Fab (006 PSMA Fab) [1] = target: T1, PSMA Fab (006 PSMA Fab); experiment: phage ELISA; biotinylated PSMA Fab on neutravidin plate, clonal phage supernatant, anti-M13 HRP detection;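 further: wells preincubated with PSMA antigen in blocking buffer or with blocking buffer only before clonal phage were added for a short incubation, then bound phage detected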
T1 construct: also called Anti-PSMA Fab; anti-PSMA Fab
Description: (§1) Clonal phage were harvested as crude supernatants and screened via standard ELISAs. […] Prior to the addition of clonal phage. wells were incubated with blocking buffer and PSMA antigen or blocking buffer alone. Without washing or aspirating, clonal phage supernatants were then added to the wells and incubated for a short time. Wells were then washed followed by detection of bound phage using a horse radish conjugated anti-M13 antibody.

PSMA Fab (006 PSMA Fab) [2] = target: T1, PSMA Fab (006 PSMA Fab); experiment: phage ELISA; biotinylated PSMA Fab on neutravidin plate pre-incubated with PSMA antigen as competitor, anti-M13 HRP detection;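 further: crude clonal phage supernatants tested, compared against control wells pre-incubated with blocking buffer only, without PSMA antigen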
Description: as §1

Anti-PSMA Fab [3] = target: T2, Anti-PSMA Fab; experiment: clonal phage ELISA on biotinylated PSMA Fab captured on neutravidin plates, anti-M13-HRP detection;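 further: crude clonal phage supernatants added to wells preincubated with PSMA antigen or with blocking buffer only (no wash between), briefly incubated, then washed before detecting bound phage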
T2 construct: also called 006 PSMA Fab
Description: as §1

Anti-PSMA Fab [4] = target: T2, Anti-PSMA Fab; experiment: clonal phage ELISA on captured PSMA Fab, wells pre-incubated with PSMA antigen as competitor, anti-M13-HRP detection;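 further: crude clonal phage supernatants added without washing after the PSMA preincubation, comparison wells received blocking buffer alone without PSMA, bound phage read after washing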
Description: as §1

PSMA Fab (006 PSMA Fab) [5] = target: T3, PSMA Fab (006 PSMA Fab) (biotinylated (site not stated)); experiment: clonal phage ELISA on biotinylated PSMA Fab captured on neutravidin plate, blocking buffer alone; anti-M13 HRP detection
T3 construct: also called Anti-PSMA Fab; anti-PSMA Fab

Binder	Phage binding ELISA signal, Anti-PSMA Fab (PSMA Fab (006 PSMA Fab) [1])	Phage binding ELISA signal, Anti-PSMA Fab in presence of PSMA (PSMA Fab (006 PSMA Fab) [2])	Phage binding ELISA signal, Anti-PSMA Fab (Anti-PSMA Fab [3])	Phage binding ELISA signal, Anti-PSMA Fab with PSMA antigen (Anti-PSMA Fab [4])	Phage binding ELISA signal, Anti-PSMA Fab (PSMA Fab (006 PSMA Fab) [5])
GLRMCEPMWMCQGF (cysteine pairing not given here; also: displayed on phage as pIII fusion) [Phage-3772]	1.34	0.0749	–	–	–
EYQRCIPEWMCSGF [Phage-3779]	1.33	0.0735	–	–	–
B1	–	–	1.31	0.0679	–
SVVKCVPSWMCTGF [Phage-3785]	1.32	0.0729	–	–	–
VHRMCEPKWMCEGF [Phage-3773]	1.33	0.0695	–	–	–
B2	–	–	1.32	0.08	–
B3	–	–	1.31	0.0602	–
B4	–	–	1.31	0.0709	–
PGASCVPAWMCDGF [Phage-3784]	1.33	0.0653	–	–	–
YSNFCVPHWMCSGF [Phage-3782]	1.33	0.0679	–	–	–
WEGFCVPTWMCDGF [Phage-3774]	1.33	0.0864	–	–	–
B5	–	–	1.31	0.104	–
PVQLCIPSWMCDGF [Phage-3776]	1.33	0.0876	–	–	–
B6	–	–	1.32	0.0821	–
B7	–	–	1.31	0.0541	–
B8	–	–	1.32	0.0856	–
B9	–	–	–	–	1.35

Binder	Phage binding ELISA signal, Anti-PSMA Fab (PSMA Fab (006 PSMA Fab) [1])	Phage binding ELISA signal, Anti-PSMA Fab in presence of PSMA (PSMA Fab (006 PSMA Fab) [2])	Phage binding ELISA signal, Anti-PSMA Fab (Anti-PSMA Fab [3])	Phage binding ELISA signal, Anti-PSMA Fab with PSMA antigen (Anti-PSMA Fab [4])	Phage binding ELISA signal, Anti-PSMA Fab (PSMA Fab (006 PSMA Fab) [5])
B10	–	–	1.32	0.0962	–
B11	1.33	0.102	–	–	–
ISPICRPAWMCHGF [Phage-3777]	1.33	0.0873	–	–	–
B12	–	–	1.31	0.0609	–
VQLMCMPEWMCSGL [Phage-3775]	1.33	0.0599	–	–	–
B13	–	–	1.32	0.0825	–
B14	–	–	1.31	0.0829	–
B15	–	–	–	–	1.35
B16	–	–	–	–	1.35
B17	–	–	1.32	0.0656	–
VTTLCRPAWMCHGF [Phage-3778]	1.33	0.0881	–	–	–
B18	–	–	–	–	1.34
B19	–	–	–	–	1.34
B20	1.33	0.113	–	–	–
B21	–	–	1.32	0.075	–
VEVRCVPAWMCEGL [Phage-3783]	1.33	0.0698	–	–	–
